From article doi:10.1101/2025.02.18.638599

Molecular target: AcrA S273C (Escherichia coli) (UniProt P0AE06)
Test: cryo-EM structure

A stoichiometry N of 6 was found for “AcrA S273C (from UniProt P0AE06 25-397) (natural protein)” in this work.
